Results: US20120010388A1 (published 2012)

How the values were obtained:
[1] = target: T1, HER2 (UniProt P04626 23-1255, limits assumed); experiment: cell-based or functional assay
[2] = target: T1, HER2; experiment: flow cytometry on SKBR3 cells (HER2 and Lewis Y on the cells), PE anti-human Fc detection, half maximal staining intensity
Experimental: SKBR3 cells are cultured in RPMI1640 containing 10% fetal calf serum an 8 mM glutamine. The cells are harvested by trypsination. A total of 1×10⁵ cells in PBS containing 0.1% BSA are incubated with dilutions of the bispecific molecules or control proteins (anti-Lewis Y antibody IGN311 and anti-HER Fcabs respectively) in the range of 1 mM to 0.1 nM and incubated on ice for 20 min. After removal of excess of bispecific molecules or control proteins cells are incubated for 10 min on ice with phycoerythrin-R-coupled polyclonal anti-human FC antibody (Sigma). Measurements are performed on a FACS analyzer (FACS Calibur).
The half maximal staining intensity (EC50) is reached for molecule no. 1 at around 1 nM and for molecule no. 2 at around 10 nM.

B1: molecule no. 1 (IGN311/Fcab 10-03-6) (bispecific antibody, human IgG1, kappa)
heavy: EVQLLESGGGLVQPGGSLRLSCAASGFTFSDYYMYWVRQAPEKRLEWVAYISNGGGSSHYVDSVKGRFTISRDNAKNTLYLQMNSLRAEDTALYHCARGMDYGAWFAYWGQGTLVTVSSASTKGPSVFPLAPSSKSTSGGTAALGCLVKDYFPEPVTVSWNSGALTSGVHTFPAVLQSSGLYSLSSVVTVPSSSLGTQTYICNVNHKPSNTKVDKKVEPKSCDKTHTCPPCPAPELLGGPSVFLFPPKPKDTLMISRTPEVTCVVVDVSHEDPEVKFNWYVDGVEVHNAKTKPREEQYNSTYRVVSVLTVLHQDWLNGKEYKCKVSNKALPAPIEKTISKAKGQPREPQVYTLPPSRDEYLHGDVSLTCLVKGFYPSDIAVEWESNGQPENNYKTTPPVLDSDGSFFLYSKLTVARYSPRMLRWAHGNVFSCSVMHEALHNHYTQKSLSLSPGK
light: DIVMTQSPLSLPVTPGEPASISCRSSQSIVHSNGNTYLEWYLQKPGQSPQLLISKVSNRFSGVPDRFSGSGSGTDFTLKISRVEAEDVGVYYCFQGSHVPFTFGQGTKLEIKRTVAAPSVFIFPPSDEQLKSGTASVVCLLNNFYPREAKVQWKVDNALQSGNSQESVTEQDSKDSTYSLSSTLTLSKADYEKHKVYACEVTHQGLSSPVTKSFNRGEC
notes: IgG: humanized anti-Lewis Y antibody IGN311 whose CH3 domain is replaced by the CH3 of the anti-HER2 Fcab 10-03-6
[1]
  half maximal (50%) immediate cytotoxicity (EC50), 51Cr release from SKBR3 cells: ~1 nM
[2]
  EC50: ~1 nM

B2: molecule no. 2 (IGN311/Fcab H561G3M1G4) (bispecific antibody, human IgG1, kappa)
heavy: EVQLLESGGGLVQPGGSLRLSCAASGFTFSDYYMYWVRQAPEKRLEWVAYISNGGGSSHYVDSVKGRFTISRDNAKNTLYLQMNSLRAEDTALYHCARGMDYGAWFAYWGQGTLVTVSSASTKGPSVFPLAPSSKSTSGGTAALGCLVKDYFPEPVTVSWNSGALTSGVHTFPAVLQSSGLYSLSSVVTVPSSSLGTQTYICNVNHKPSNTKVDKKVEPKSCDKTHTCPPCPAPELLGGPSVFLFPPKPKDTLMISRTPEVTCVVVDVSHEDPEVKFNWYVDGVEVHNAKTKPREEQYNSTYRVVSVLTVLHQDWLNGKEYKCKVSNKALPAPIEKTISKAKGQPREPQVYTLPPSRDEFFTYWVSLTCLVKGFYPSDIAVEWESNGQPENNYKTTPPVLDSDGSFFLYSKLTVDRRRWTAGNVFSCSVMHEALHNHYTQKSLSLSPGK
light: DIVMTQSPLSLPVTPGEPASISCRSSQSIVHSNGNTYLEWYLQKPGQSPQLLISKVSNRFSGVPDRFSGSGSGTDFTLKISRVEAEDVGVYYCFQGSHVPFTFGQGTKLEIKRTVAAPSVFIFPPSDEQLKSGTASVVCLLNNFYPREAKVQWKVDNALQSGNSQESVTEQDSKDSTYSLSSTLTLSKADYEKHKVYACEVTHQGLSSPVTKSFNRGEC
notes: IgG: humanized anti-Lewis Y antibody IGN311 whose CH3 domain is replaced by the CH3 of the anti-HER2 Fcab H561G3M1G4
[1]
  half maximal (50%) immediate cytotoxicity (EC50), 51Cr release from SKBR3 cells: ~10 nM
[2]
  EC50: ~10 nM
